Laboratory results reported in patent US12516130B2, “Single-domain antibody for targeting prostate specific membrane antigen (PSMA)” (NATIONAL INSTITUTE FOR BIOTECHNOLOGY IN THE NEGEV LTD., priority 2019, dated 2026).
Where a chain is given by its changes, count along the chain named.

B1: NB13: anti-PSMA camel nanobody (VHH, ~16 kDa) selected by phage display (protein)
VHH: QVQLQESGGGSVQTGGSLRLSCAASGYTASFSWIGYFRQAPGKEREGVAVINVGVGSTYYADSVKGRFTISRDNTENTISLEMNSLKPEDTGLYYCAGSLRWSRPPNPISEDAYNYWGQGTQVTVSSAAAYPYDVPDYGS
B2: NB7: anti-PSMA camel nanobody (VHH, ~16 kDa) selected by phage display; PDB 6XXN (protein)
VHH: QVQLQESGGGSVQAGGSLRLSCTAPGYTDSNYYMSWFRQAPGKEREWVAGVNTGRGSTSYADSVKGRFTISQDNAKNTMFLQMNSLKPEDTAIYYCAVAACHFCDSLPKTQDEYILWGQGTQVTVSSAAAYPYDVPDYGS
B3: NB7 K43PrK: NB7 with lysine K43 changed to the non-natural amino acid PrK (protein)
VHH: B2 VHH with K43X
modifications: non-natural residues; left off: small tags and cut ends
notes: NB7 with lysine K43 changed to the non-natural amino acid PrK
B4: NB7cys: NB7 with an added cysteine in the C-terminus (protein)
VHH (part 1 of 2): B2 VHH
VHH (part 2 of 2): C
modifications: left off: small tags and cut ends
notes: NB7 with an added cysteine in the C-terminus
B5: NB8: anti-PSMA camel nanobody (VHH, ~16 kDa) selected by phage display; PDB 6XXO (protein)
VHH: QVQLQESGGGSVQAGGSLRLSCARSGWPYSTYSMNWFRQAPGKEREAVAGISSTMSGIIFAESKAGQFTISQDNAKNTVYLQMNNLKPEDTAIYYCAARRDYSLSSSSDDFDYWGQGTQVTVSSAAAYPYDVPDYGS
B6: NB37: anti-PSMA camel nanobody (VHH, ~16 kDa) selected by phage display; PDB 6XXP (protein)
VHH: B5 VHH with Q13E

How the values were obtained:
[1] = system: PC3-PIP cells; experiment: Mitochondrial potential assay (TMRE); assay type: cell-based; settings: 24 h, 1.5 μg/ml DOX or equivalent molar amount
Method: PC3-PIP cells (2×10^4) were seeded on 96-well plates. […] After 24 h, tetramethylrhodamine ethyl ester (TMRE; Abcam, UK) was added according to the protocol provided by the manufacturer. Fluorescence intensity was measured at an excitation wavelength of 549 nm and an emission wavelength of 575 nm.

[2] = system: PC3-PIP (PSMA+) and PC3-flu (PSMA−) xenografts; experiment: In vivo optical (NIR) imaging of labeled NBs; parameters: species or system athymic nude mice; settings: for duration until the fluorescent signal was no longer detected (late time point): whole-body NIR imaging, 1.5 nmole AlexaFluor680-labeled NB i.v.
Method: Tumor xenografts were generated in 6-week old male athymic nude mice by using PC3-PIP and PC3-flu cells. Each mouse was simultaneously injected subcutaneously with 2×10^6 cells of each line, diluted 1:1 with Matrigel (Corning, USA); PC3-PIP cells were injected above the right upper flank, while PC3-flu cells were injected above the left one. Nine days after the inoculation, as the tumors reached a size of ˜200 mm^3, these mice were injected intravenously with 1.5 nmole of either NB7, NB8, NB13, or NB37 (four mice per group) labeled with NHS-ester AlexaFluor680 (Invitrogen). In addition to these 16 mice, four tumor-bearing mice were not injected with any NB, while four other mice were injected with the labeled NBs (a different NB per mouse) but were not implanted with a xenograft. The mice were anesthetized with isoflurane at different time points (see below) and the distribution of the fluorescently labeled protein was measured in near infra-red (NIR) optical imaging using the IVIS Lumina system (PerkinElmer, USA). Exposure time was set at 1 s. The fluorescence signal was measured at the time of injection, and 0.5, 1, 2, 3, 6, 10, 18, 24, 28, 32, 36, 48 and 56 h after injection. Images of the mice were acquired 3 and 6 h after injection, and again when a signal was no longer detected (24-56 h after injection). At each time point, one mouse from each group of tumor-bearing mice that had been injected with a NB was euthanized for an ex vivo quantification of the fluorescent signal in its organs, using the Living Image software.

[3] = system: PC3-PIP cells; experiment: Time-dependent quantification of NB internalization; assay type: cell-based; settings: 100 nM, imaged every 40 min for 16 h
Method: NB7, NB8, NB13, and NB37, each labeled with Dylight488, were individually incubated for 1 h (at 100 nM) in a 96-well plate. On each well, 1.5×10^4 PC3-PIP cells were seeded and grown overnight, and then the wells were imaged every 40 min for a total of 16 h, using the Operetta CLS high-content analysis system (Perkin Elmer). Each well was imaged as 24 fields, which were later combined to create an image of the entire well. Using the Operetta analysis software, the cells were qualitatively classified into two groups according to the distribution of NBs: (i) mostly on the cell membrane, and (ii) mostly inside the cytoplasm. The number of cells in each group was quantified at each time point and the ratio between the numbers of cells in each group was calculated.

[4] = molecular target: T1, PSMA (Homo sapiens, UniProt Q04609); experiment: Small-angle X-ray scattering of PSMA-NB complexes; settings: for Dmax / Rg: PSMA + NB; for shift of Rg of PSMA-NB complex from the original Rg of PSMA (43 Å) / change of Dmax on binding of PSMA to NB: SAXS; for shift of Rg of PSMA-NB complex from the original Rg of PSMA (43 Å): PSMA 0.5 mg/ml; for change of Dmax on binding of PSMA to NB: PSMA alone 115 Å
T1 construct: purified extracellular domain of PSMA [residues 44-750; purchased from Caltech Protein Expression Center, CA]; purchased Caltech Protein Expression Center, CA
T1 sequence (Q04609 44-750): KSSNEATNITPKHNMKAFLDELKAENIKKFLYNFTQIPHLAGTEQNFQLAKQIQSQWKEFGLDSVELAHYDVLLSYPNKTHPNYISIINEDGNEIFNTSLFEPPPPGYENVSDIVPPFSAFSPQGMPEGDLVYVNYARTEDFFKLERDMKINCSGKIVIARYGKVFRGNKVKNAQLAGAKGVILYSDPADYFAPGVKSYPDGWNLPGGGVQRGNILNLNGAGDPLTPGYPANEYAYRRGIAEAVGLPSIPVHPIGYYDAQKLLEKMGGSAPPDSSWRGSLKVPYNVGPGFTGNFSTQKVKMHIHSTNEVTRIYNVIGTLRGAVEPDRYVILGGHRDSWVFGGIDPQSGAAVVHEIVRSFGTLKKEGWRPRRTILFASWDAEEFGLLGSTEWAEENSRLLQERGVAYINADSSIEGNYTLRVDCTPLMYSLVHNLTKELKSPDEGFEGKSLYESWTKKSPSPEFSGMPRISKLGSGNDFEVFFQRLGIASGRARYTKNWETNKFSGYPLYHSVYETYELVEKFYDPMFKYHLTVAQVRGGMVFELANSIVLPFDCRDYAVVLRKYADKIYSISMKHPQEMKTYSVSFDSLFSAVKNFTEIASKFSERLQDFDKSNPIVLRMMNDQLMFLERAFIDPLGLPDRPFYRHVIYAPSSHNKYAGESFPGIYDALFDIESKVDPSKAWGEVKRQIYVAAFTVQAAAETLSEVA
Method: The small-angle X-ray scattering (SAXS) of monomeric PSMA was measured in PBS at a final concentration of 0.5-3 mg/ml. For PSMA-NB complex samples, the concentration of PSMA was 0.5 mg/ml and the concentrations of the NBs were 0.1-0.5 mg/ml. Measurements were performed in beamline BM29 at the ESRF. The X-ray wavelength was 1.5 Å and the temperature was 4° C. The detector was Pilatus 1 M and the sample-to-detector distance was set at 2.86 m, with a scattering vector (q) range of 0.0025-0.5 Å^−1. At a scattering angle of 2θ, the magnitude of the scattering vector (q) is defined as: […]
The experimental SAXS data for all samples were linear in the low q, Guinier region. The radii of gyration (Rg) were derived from data in the qRg<1 region by using the Guinier approximation:
The inventors analyzed the small-angle region (0.012<q<0.08 Å^−1) of the scattering profiles using the Guinier approximation embedded in the GNOM method.
The scattering curve reflects structural characteristics in reciprocal space. Scattering profiles were translated into real space by Fourier transformation, resulting in the pairwise-distance distribution function P(r). This function reflects the distances between pairs of scattering points within the macromolecule, allowing the determination of the maximum dimension of the particle (Dmax). To obtain a reliable quantification of Dmax, the inventors incorporated GNOM with in-house scripts. The Rg of monomeric PSMA extracted from SAXS data was compared to the calculated Rg from the crystal structure of monomeric PSMA (PDB 3D7D) using CRYSOL. The overall three-dimensional ab initio models of PSMA and PSMA-NB complexes were restored from the experimental scattering data by using Dammin. Shape reconstruction was performed to represent the molecular shape as a closely packed sphere assembly within a search volume defined by Dmax, chosen with a χ^2<1.3 for all models. For all samples, 20 low-resolution models were averaged using the program DAMAVER to yield an averaged model representing the general structural features of each reconstruction.

[5] = molecular target: T1, PSMA; experiment: Surface plasmon resonance binding assay; settings: for Koff / Kon: SPR, immobilized NB, 1:1 Langmuir model, 25° C., means ± SD; for binding constant (Ka) to PSMA: stated per SEQ ID NO in the description
Method: The affinity of each NB to PSMA was determined by using surface plasmon resonance (SPR) spectroscopy on a ProteOn XPR36 chip (Bio-Rad, CA). The chip was activated by using sulfo-NHS (0.1 M N-hydroxysuccinimide) and EDC [0.4 M 1-ethyl-3-(3-dimethylaminopropyl)-carbodiimide]. Each NB (0.2 μg) was immobilized in a 10 mM sodium acetate buffer, pH 5.0, at a flow rate of 30 μl/min. Bovine serum albumin (BSA) (3 μg) was immobilized on the chip as a negative control. Unbound esters were deactivated with 1 M ethanolamine HCl at pH 8.5. The soluble PSMA was then applied over the chip at concentrations of 2.94, 5.88, 11.75, 23.50, or 47.00 nM (for NBs 8, 13, and 37) or of 25, 50, 100, 1,600, or 3,200 pM (for NB7), at a flow rate of 25 μl/min. During this time, the association between the NBs and PSMA was measured. The dissociation was measured while flowing 50 μl/min PBST (namely, a phosphate-buffered saline with 0.005% Tween). For each protein complex, a binding sensogram was generated by subtracting the values of the PSMA response to BSA from those of the PSMA response to the NBs. The dissociation constant (KD) was determined from the Langmuir 1:1 kinetic model. The temperature throughout the binding measurements was set at 25° C.

[6] = system: PC3-PIP (PSMA+) cells; experiment: FACS cell binding assay, PC3-PIP cells; assay type: cell-based; settings: effect of K43PrK mutation
Method: Once the cells reached 70% confluence, 10^5 cells were added to each well of 96-well U-shaped bottom plates (Greiner Bio-One, Austria), centrifuged at 150 g for 5 min, and washed with PBSA (namely, PBS+1 g/1 BSA). NBs were added to the cells in concentrations of 0.1, 0.5, 2, 5, 10, 20, 50, 100, 500, or 1000 nM. The cells were incubated with the NBs for 2 h, followed by three PBSA washing steps. An anti-His antibody conjugated to fluorescein isothiocyanate (FITC) (Invitrogen) was then added at a dilution of 1:100, incubated with the cells for 1 h, and washed three times with PBSA. The cells were kept on ice throughout the experiment. The fluorescence of each sample was measured using an Accuri C6 flow cytometry analyzer (BD Biosciences, CA). Each experimental condition was repeated three times. To generate a titration curve, the value for each sample was determined using the equation:
[formula] where Fsample is the mean fluorescence value, Flow is the fluorescence at the lowest concentration for PC3-PIP cells, and Fhigh is the fluorescence at the highest concentration for PC3-PIP cells. A binding curve was generated using GraphPad Prism 5.0.

[7] = system: PC3-PIP cells; experiment: Cell viability assay (propidium iodide, FACS); assay type: cell-based; settings: 24 h, 1.5 μg/ml DOX or equivalent molar amount
Method: PC3-PIP cells were grown and treated as described in the cell quantification assay section, above. The cells were harvested, incubated with 0.5 μg propidium iodide (PI; Biolegend), and their fluorescence intensity was measured in a BD C6 flow cytometer.

Molecule | mitochondrial membrane potential (TMRE signal) [1] | duration until the fluorescent signal was no longer detected (late time point) [2] [h] | internalization into PSMA-expressing cells (cytoplasm/membrane ratio over time) [3] | Dmax ([4]; method GNOM) [Å] | Rg ([4]; method GNOM) [Å] | Rg ([4]; method Guinier) [Å] | shift of Rg of PSMA-NB complex from the original Rg of PSMA (43 Å) [4] | change of Dmax on binding of PSMA to NB [4] | Koff [5] [s⁻¹] | Kon [5] [M⁻¹ s⁻¹] | binding constant (Ka) to PSMA [5] | binding to PC3-PIP cells versus NB7, FACS [6] | PI signal (late apoptosis and necrosis) [7] | signal intensity in the PC3-PIP tumor ([2]; ex vivo, after 3 h) | signal intensity in the PC3-flu tumor ([2]; ex vivo, after 3 h) | signal intensity in the kidneys ([2]; ex vivo, after 3 h)
Carbonyl cyanide 4-(trifluorornethoxy) phenythydrazone [FCCP] | significantly reduced the mitochondrial membrane potential | – | – | – | – | – | – | – | – | – | – | – | – | – | – | –
B1 | – | 32 | much faster | 120 | 40.5 | 43.8 | lower Rg | increased Dmax | 2.2e-05 ± 9.9e-07 | 36000 ± 89 | about 3.6×10^4 M^−1 s^−1 | – | – | – | – | –
B2 | – | > 56 | much faster | 120 | 42.4 | 48.2 | higher Rg | increased Dmax | 3.9e-05 ± 2.8e-07 | 710000 ± 450 | about 7.1×10^5 M^−1 s^−1 | – | – | – | – | –
B3 | – | – | – | – | – | – | – | – | – | – | – | no significant change in binding | – | – | – | –
B4 | – | – | – | – | – | – | – | – | – | – | – | – | did not change the PI signal | – | – | –
B5 | – | 32 | – | 100 | 39.4 | 40.5 | lower Rg | decreased it | 0.00012 ± 5.3e-07 | 20000 ± 42 | about 2×10^4 M^−1 s^−1 | – | – | 171,000 counts/cm^2/s | 21,300 counts/cm^2/s | 94,700 counts/cm^2/s
B6 | – | 24 | – | 110 | 38.6 | 40.4 | lower Rg | decreased it | 7.5e-05 ± 6.6e-07 | 22000 ± 53 | about 2.2×10^4 M^−1 s^−1 | – | – | – | – | –
